# Laboratory results: publication PMC7825114, “Studying GGDEF Domain in the Act: Minimize Conformational Frustration to Prevent Artefacts” (Life, 2021)
# Biological target: the molecule itself
# Test: SEC; FPLC (AKTA system), buffer A (Table S1); multiple runs on diluted protein to allow c-di-GMP to dissociate on the column
protein,measurement,value
"PleD from C. crescentus (enzyme, UniProt Q9A5I5 1-454, looked up, PleD, diguanylate cyclase of C. crescentus; In the functional assay the protein was also used after treatment with NaF and BeCl2 (beryllium fluoride, mimics phosphorylation); source: E. coli BL21 (DE3), purified (Ni2+-IMAC HisTrap, multiple FPLC runs)) MSARILVVDDIEANVRLLEAKLTAEYYEVSTAMDGPTALAMAARDLPDIILLDVMMPGMDGFTVCRKLKDDPTTRHIPVVLITALDGRGDRIQGLESGASDFLTKPIDDVMLFARVRSLTRFKLVIDELRQREASGRRMGVIAGAAARLDGLGGRVLIVDDNERQAQRVAAELGVEHRPVIESDPEKAKISAGGPVDLVIVNAAAKNFDGLRFTAALRSEERTRQLPVLAMVDPDDRGRMVKALEIGVNDILSRPIDPQELSARVKTQIQRKRYTDYLRNNLDHSLELAVTDQLTGLHNRRYMTGQLDSLVKRATLGGDPVSALLIDIDFFKKINDTFGHDIGDEVLREFALRLASNVRAIDLPCRYGGEEFVVIMPDTALADALRIAERIRMHVSGSPFTVAHGREMLNVTISIGVSATAGEGDTPEALLKRADEGVYQAKASGRNAVVGKAA",stoichiometry N,2
